From patent US20230038638A1, “COMPLEMENT FACTOR I-RELATED COMPOSITIONS AND METHODS” (published 2023)
Substitutions are numbered along the chain they refer to.

Legend:
[1] = target: soluble human C3b (human) (UniProt P01024)
human C4b (human) [2] = target: T1, human C4b (human) (UniProt P0C0L5)
T1 sequence: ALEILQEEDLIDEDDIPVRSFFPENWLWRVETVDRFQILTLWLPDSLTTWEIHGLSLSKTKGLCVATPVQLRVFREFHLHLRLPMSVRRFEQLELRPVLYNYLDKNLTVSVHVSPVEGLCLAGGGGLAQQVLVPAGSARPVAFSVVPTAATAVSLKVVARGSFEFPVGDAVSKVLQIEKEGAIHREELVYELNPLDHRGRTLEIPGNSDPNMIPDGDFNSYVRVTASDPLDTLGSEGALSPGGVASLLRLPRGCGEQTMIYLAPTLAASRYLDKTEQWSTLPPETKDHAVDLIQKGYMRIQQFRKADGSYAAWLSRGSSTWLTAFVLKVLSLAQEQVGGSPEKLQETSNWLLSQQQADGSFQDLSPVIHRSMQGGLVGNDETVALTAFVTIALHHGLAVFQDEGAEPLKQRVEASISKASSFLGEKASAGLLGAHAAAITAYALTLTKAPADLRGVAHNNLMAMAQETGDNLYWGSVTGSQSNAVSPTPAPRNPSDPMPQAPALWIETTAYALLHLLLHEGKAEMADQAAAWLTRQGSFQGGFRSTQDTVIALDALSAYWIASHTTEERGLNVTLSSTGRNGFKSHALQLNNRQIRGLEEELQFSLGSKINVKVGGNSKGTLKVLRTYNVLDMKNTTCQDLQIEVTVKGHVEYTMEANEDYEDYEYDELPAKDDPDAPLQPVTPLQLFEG

human C4b (human) [3] = target: T2, human C4b (human) (UniProt P0C0L4)
T2 sequence: T1 sequence with T151A, G317D, L364P, S365C, I368L, H369D, S420N, A451V, R454L, A530S

[4] = target: soluble human C3b (human) (UniProt P01024); remark: listed apart in the source

| Substance | iC3b Screen Ref Fold (fold vs CFI-HSA wild type) [1] | C4b Screen Ref Fold (fold vs CFI-HSA wild type) (human C4b (human) [2]) | C4c EC50 (nM) (human C4b (human) [3]) | iC3b EC50 [4] [nM] | iC3b Screen Ref Fold (fold of CFI-HSA wild type) [1] | C4b Screen Ref Fold (fold of CFI-HSA wild type) (human C4b (human) [2]) | C4c EC50 (human C4b (human) [3]) [nM] |
| --- | --- | --- | --- | --- | --- | --- | --- |
| CFI-HSA variant E457H (enzyme) | 0.26 | 0.31 | 886 | 78.7 |  |  |  |
| CFI-HSA variant E457I (enzyme) | 0.99 | 1.75 | 256 | 20.5 |  |  |  |
| CFI-HSA variant E530D; F537K (enzyme) | 0.98 | 0.92 | 373 | 15.6 |  |  |  |
| CFI-HSA variant E530F (enzyme) | 0.98 | 0.08 | > 1000 | 21.8 |  |  |  |
| CFI-HSA variant E530G; N531G (enzyme) | 0.54 | 0.04 | > 1000 | 31.3 |  |  |  |
| CFI-HSA variant E530Y (enzyme) | 1.16 | 0.33 | 381 | 16.1 |  |  |  |
| CFI-HSA variant F464Y (enzyme) | 0.27 | 0.55 | 347 | 55.4 |  |  |  |
| CFI-HSA variant F537K (enzyme) | 1.28 | 0.3 | 890 | 40.2 |  |  |  |
| CFI-HSA variant F537R (enzyme) | 1.08 | 0.16 | 645 | 29.1 |  |  |  |
| CFI-HSA variant F559L; Y563H (enzyme) |  |  |  | 39.6 | 0.71 | 1.03 | 130 |
| CFI-HSA variant G556A (enzyme) |  |  |  | 76 | 0.15 | 1.06 | > 1000 |
| CFI-HSA variant G556S (enzyme) |  |  |  | 29.7 | 0.55 | 1.53 | 180 |
| CFI-HSA variant K504A (enzyme) | 0.41 | 0.23 | > 1000 | 51.9 |  |  |  |
| CFI-HSA variant K504H (enzyme) | 0.54 | 3.84 | 229 | 53.6 |  |  |  |
| CFI-HSA variant K504L (enzyme) | 0.12 | 0.01 | > 1000 | 144 |  |  |  |
| CFI-HSA variant K504R (enzyme) | 0.89 | 0.51 | 439 | 33.7 |  |  |  |
| CFI-HSA variant K534Q (enzyme) | 1.53 | 1.76 | 595 | 21.7 |  |  |  |
| CFI-HSA variant N422K (enzyme) | 1.36 | 2.13 | 359 | 10.9 |  |  |  |
| CFI-HSA variant N476Q (enzyme) | 1.03 | 0.85 | > 1000 | 15.7 |  |  |  |
| CFI-HSA variant N518Q (enzyme) | 1 | 1.11 | 510 | 20.2 |  |  |  |
| CFI-HSA variant N531G; D425K (enzyme) |  |  |  | 5.2 | 1.19 | 4.7 | 51.9 |

| Substance | iC3b Screen Ref Fold (fold vs CFI-HSA wild type) [1] | C4b Screen Ref Fold (fold vs CFI-HSA wild type) (human C4b (human) [2]) | C4c EC50 (nM) (human C4b (human) [3]) | iC3b EC50 [4] [nM] | iC3b Screen Ref Fold (fold of CFI-HSA wild type) [1] | C4b Screen Ref Fold (fold of CFI-HSA wild type) (human C4b (human) [2]) | C4c EC50 (human C4b (human) [3]) [nM] |
| --- | --- | --- | --- | --- | --- | --- | --- |
| CFI-HSA variant N531G; E416A (enzyme) |  |  | 11.9 | 6.9 | 1.11 | 4.82 |  |
| CFI-HSA variant N531G; E457G; E461Q (enzyme) | 0.95 | 6.42 | 29.3 | 5.6 |  |  |  |
| CFI-HSA variant N531G; N422K (enzyme) |  |  |  | 5.2 | 2.43 | 4.68 | 42.6 |
| CFI-HSA variant N531G; P535A (enzyme) | 1.53 | 5.6 | 53.4 | 7.9 |  |  |  |
| CFI-HSA variant P535G; D425K (enzyme) |  |  |  | 19.4 | 0.53 | 0.1 | 865 |
| CFI-HSA variant P535G; E416A (enzyme) |  |  | > 1000 | 41.6 | 0.53 | 0.13 |  |
| CFI-HSA variant P558A (enzyme) |  |  |  | 20.8 | 0.87 | 1.21 | 213 |
| CFI-HSA variant P558L (enzyme) | 0.99 | 0.89 | 472 | 12.4 |  |  |  |
| CFI-HSA variant Q467K (enzyme) | 0.95 | 3.04 | 246 | 18.7 |  |  |  |
| CFI-HSA variant Q467K; F537K (enzyme) | 1.31 | 0.85 | 615 | 12.7 |  |  |  |
| CFI-HSA variant Q467R (enzyme) | 0.59 | 0.48 | 399 | 27.1 |  |  |  |
| CFI-HSA variant R557K (enzyme) | 0.28 | 3.09 | 266 | 99.9 |  |  |  |
| CFI-HSA variant Y408F (enzyme) | 0.61 | 1.88 | 225 | 19.2 |  |  |  |
| CFI-HSA variant Y408H (enzyme) | 0.82 | 0.05 | > 1000 | 43.3 |  |  |  |
| CFI-HSA variant Y408L-N531G (enzyme) | 1.09 | 5.29 | 70.5 | 10.6 |  |  |  |
| CFI-HSA variant Y408L; E416A (enzyme) |  |  |  | 20.8 | 1.21 | 0.41 | > 1000 |
| CFI-HSA variant Y408L; E457G; N531G; D425K (enzyme) |  |  |  | 4.7 | 0.58 | 5.1 | 13.5 |
| CFI-HSA variant Y408L; E457G; N531G; P535G; P558S (enzyme) |  |  |  | 9.6 | 1.39 | 4.34 | 27.9 |
| CFI-HSA variant Y408L; E457G; P535G (enzyme) |  |  |  | 11.7 | 0.6 | 1.21 | 205 |
| CFI-HSA variant Y408L; E457G; P535G; D425K (enzyme) |  |  |  | 5.2 | 0.04 | 2.13 | 46.5 |
| CFI-HSA variant Y408L; P535G (enzyme) |  |  |  | 50.9 | 0.27 | 0 | > 1000 |
